Data taken from US20260232827A1 (Zymeworks, published 2026).

Key:
[1] = biological target: T1, Construct 6 (human NaPi2b del 317-333) (human, UniProt O95436 1-690); assay: flow cytometry, transfected HEK293-6e cells, antibody 2 nM;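 note: transfected cells exposed to test antibody 24 h at 4 °C to block internalization, at least 1,000 events per well, background is mean MFI of unstained cells lacking primary antibody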
T1 construct: also called CL_#29919
T1 sequence: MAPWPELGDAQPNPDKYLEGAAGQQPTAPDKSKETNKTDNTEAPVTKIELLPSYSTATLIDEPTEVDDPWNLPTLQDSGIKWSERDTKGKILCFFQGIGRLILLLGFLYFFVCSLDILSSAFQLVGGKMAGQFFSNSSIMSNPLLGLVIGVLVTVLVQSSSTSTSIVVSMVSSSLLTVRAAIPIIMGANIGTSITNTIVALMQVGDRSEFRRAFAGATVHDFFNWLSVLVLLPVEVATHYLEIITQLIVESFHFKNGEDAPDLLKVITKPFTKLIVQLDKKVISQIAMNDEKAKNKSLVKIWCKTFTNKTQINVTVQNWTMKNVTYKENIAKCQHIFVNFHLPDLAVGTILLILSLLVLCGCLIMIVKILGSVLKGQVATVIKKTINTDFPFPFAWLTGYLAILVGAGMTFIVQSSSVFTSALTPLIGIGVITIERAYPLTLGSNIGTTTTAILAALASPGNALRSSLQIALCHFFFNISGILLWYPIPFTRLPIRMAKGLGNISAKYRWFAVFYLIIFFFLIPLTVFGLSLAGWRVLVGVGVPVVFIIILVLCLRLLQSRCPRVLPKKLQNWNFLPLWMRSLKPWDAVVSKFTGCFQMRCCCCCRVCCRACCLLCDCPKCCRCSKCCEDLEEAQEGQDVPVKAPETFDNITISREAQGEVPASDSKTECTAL

[2] = biological target: T2, Construct 7 (human NaPi2b del 317-326) (human, UniProt O95436 1-690); assay: as above
T2 construct: also called CL_#29921
T2 sequence: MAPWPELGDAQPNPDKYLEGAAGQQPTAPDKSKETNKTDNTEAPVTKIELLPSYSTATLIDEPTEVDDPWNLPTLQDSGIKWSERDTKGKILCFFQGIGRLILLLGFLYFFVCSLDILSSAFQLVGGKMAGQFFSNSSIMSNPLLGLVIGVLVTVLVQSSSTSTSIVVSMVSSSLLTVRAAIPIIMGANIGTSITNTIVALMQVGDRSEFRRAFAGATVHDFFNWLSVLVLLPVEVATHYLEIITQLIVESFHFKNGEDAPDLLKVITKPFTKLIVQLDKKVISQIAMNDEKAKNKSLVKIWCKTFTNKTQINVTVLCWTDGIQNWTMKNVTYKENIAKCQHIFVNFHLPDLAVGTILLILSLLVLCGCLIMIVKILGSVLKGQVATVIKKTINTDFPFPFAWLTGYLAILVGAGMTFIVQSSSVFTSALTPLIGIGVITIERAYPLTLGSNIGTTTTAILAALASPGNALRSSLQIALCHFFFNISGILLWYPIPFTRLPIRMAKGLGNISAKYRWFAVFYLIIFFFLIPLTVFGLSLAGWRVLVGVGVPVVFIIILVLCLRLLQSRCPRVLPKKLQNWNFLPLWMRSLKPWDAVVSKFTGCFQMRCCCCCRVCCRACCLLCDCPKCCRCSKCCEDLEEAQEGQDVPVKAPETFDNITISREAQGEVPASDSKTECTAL

[3] = biological target: T3, Construct 5 (chimeric human NaPi2b, swap in NaPi2a in 304-348) (human); assay: as above
T3 construct: also called CL_#13436

[4] = biological target: T1, Construct 6 (human NaPi2b del 317-333); assay: flow cytometry, transfected HEK293-6e cells, antibody 20 nM
[5] = biological target: T4, Full length human NaPi2b (sodium-dependent phosphate transporter 2B, SLC34A2) (human, UniProt O95436 1-690); assay: as above
T4 construct: also called huNaPi2b; CL_#13432
T4 sequence: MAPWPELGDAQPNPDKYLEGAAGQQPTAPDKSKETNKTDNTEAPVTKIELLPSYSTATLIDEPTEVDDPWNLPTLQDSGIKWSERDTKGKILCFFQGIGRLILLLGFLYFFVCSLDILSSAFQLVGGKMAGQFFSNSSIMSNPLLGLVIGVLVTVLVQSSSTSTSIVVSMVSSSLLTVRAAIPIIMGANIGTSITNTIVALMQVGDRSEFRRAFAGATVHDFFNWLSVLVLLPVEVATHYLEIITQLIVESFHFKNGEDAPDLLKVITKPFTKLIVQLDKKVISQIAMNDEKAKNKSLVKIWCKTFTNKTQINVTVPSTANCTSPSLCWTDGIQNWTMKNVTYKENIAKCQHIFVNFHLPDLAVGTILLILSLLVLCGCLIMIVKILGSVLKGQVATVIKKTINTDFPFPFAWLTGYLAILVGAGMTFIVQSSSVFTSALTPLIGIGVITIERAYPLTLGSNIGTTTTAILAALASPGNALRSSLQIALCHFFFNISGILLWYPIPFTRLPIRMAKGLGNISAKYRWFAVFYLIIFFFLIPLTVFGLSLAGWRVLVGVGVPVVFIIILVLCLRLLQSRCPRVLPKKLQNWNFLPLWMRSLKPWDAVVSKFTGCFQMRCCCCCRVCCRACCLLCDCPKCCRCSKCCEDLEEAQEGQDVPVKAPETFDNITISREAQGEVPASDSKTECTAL

[6] = biological target: T2, Construct 7 (human NaPi2b del 317-326); assay: as above
[7] = biological target: T5, Construct 1 (chimeric human NaPi2b, swap in NaPi2c in 239-259) (human); assay: as above
T5 construct: also called CL_#29914

[8] = biological target: T6, Construct 4 (chimeric human NaPi2b, swap in NaPi2c in 341-358) (human); assay: as above
T6 construct: also called CL_#13435

[9] = biological target: T7, Construct 2 (chimeric human NaPi2b, swap in NaPi2c in 280-301) (human); assay: as above
T7 construct: also called CL_#29915

[10] = biological target: T3, Construct 5 (chimeric human NaPi2b, …); assay: as above

B1: v38591 (humanized anti-NaPi2b antibody, H1L2, wild-type Fc, heavy chains with C-terminal lysine) (antibody, human IgG1, kappa)
heavy: not shown
light: DVQMTQSPSSLSASVGDRVTITCRASQDVYSYLNWYQQKPGKAVKLLIYYTSRLQSGVPSRFSGSGSGTDYTLTISSLQPEDFATYYCQQYNIFPWTFGQGTKLEIKRTVAAPSVFIFPPSDEQLKSGTASVVCLLNNFYPREAKVQWKVDNALQSGNSQESVTEQDSKDSTYSLSSTLTLSKADYEKHKVYACEVTHQGLSSPVTKSFNRGEC
notes: Full-size human IgG1/kappa antibody; also called v38591 (wild-type Fc)
[1]
  Background-Subtracted AF647 Mean Fluorescence Intensity: -38 MFI
[2]
  Background-Subtracted AF647 Mean Fluorescence Intensity: 677 MFI
[3]
  Background-Subtracted AF647 Mean Fluorescence Intensity: -12 MFI
[4]
  Background-Subtracted AF647 Mean Fluorescence Intensity: -7 MFI
[5]
  Background-Subtracted AF647 Mean Fluorescence Intensity: 1420 MFI
[6]
  Background-Subtracted AF647 Mean Fluorescence Intensity: 981 MFI
[7]
  Background-Subtracted AF647 Mean Fluorescence Intensity: 1860 MFI
[8]
  Background-Subtracted AF647 Mean Fluorescence Intensity: 993 MFI
[9]
  Background-Subtracted AF647 Mean Fluorescence Intensity: 1340 MFI

B2: MX35 (v18992), reference anti-NaPi2b antibody (antibody, human IgG1, kappa)
heavy 1: GQVQLVQSGAEVVKPGASVKMSCKASGYTFTGYNIHWVKQAPGQGLEWIGAIYPGNGDTSYKQKFRGRATLTADTSTSTVYMELSSLRSEDSAVYYCARGETARATFAYWGQGTLVTVSSASTKGPSVFPLAPSSKSTSGGTAALGCLVKDYFPEPVTVSWNSGALTSGVHTFPAVLQSSGLYSLSSVVTVPSSSLGTQTYICNVNHKPSNTKVDKKVEPKSCDKTHTCPPCPAPELLGGPSVFLFPPKPKDTLMISRTPEVTCVVVDVSHEDPEVKFNWYVDGVEVHNAKTKPREEQYNSTYRVVSVLTVLHQDWLNGKEYKCKVSNKALPAPIEKTISKAKGQPREPQVYVYPPSRDELTKNQVSLTCLVKGFYPSDIAVEWESNGQPENNYKTTPPVLDSDGSFALVSKLTVDKSRWQQGNVFSCSVMHEALHNHYTQKSLSLSPG
heavy 2: not shown
light: GDIQMTQSPSSLSASVGDRVTITCSASQDIGNFLNWYQQKPGKTVKVLIYYTSSLYSGVPSRFSGSGSGTDYTLTISSLQPEDFATYYCQQYSKLPLTFGQGTKLELKRTVAAPSVFIFPPSDEQLKSGTASVVCLLNNFYPREAKVQWKVDNALQSGNSQESVTEQDSKDSTYSLSSTLTLSKADYEKHKVYACEVTHQGLSSPVTKSFNRGEC
[1]
  Background-Subtracted AF647 Mean Fluorescence Intensity: -59 MFI
[2]
  Background-Subtracted AF647 Mean Fluorescence Intensity: 76 MFI
[3]
  Background-Subtracted AF647 Mean Fluorescence Intensity: 16 MFI
[4]
  Background-Subtracted AF647 Mean Fluorescence Intensity: 67 MFI
[5]
  Background-Subtracted AF647 Mean Fluorescence Intensity: 1250 MFI
[6]
  Background-Subtracted AF647 Mean Fluorescence Intensity: 233 MFI
[7]
  Background-Subtracted AF647 Mean Fluorescence Intensity: 1820 MFI
[8]
  Background-Subtracted AF647 Mean Fluorescence Intensity: 979 MFI
[10]
  Background-Subtracted AF647 Mean Fluorescence Intensity: 79 MFI
[9]
  Background-Subtracted AF647 Mean Fluorescence Intensity: 1250 MFI

B3: lifastuzumab (v18993), reference anti-NaPi2b antibody (antibody, human IgG1, kappa)
heavy 1: GEVQLVESGGGLVQPGGSLRLSCAASGFSFSDFAMSWVRQAPGKGLEWVATIGRVAFHTYYPDSMKGRFTISRDNSKNTLYLQMNSLRAEDTAVYYCARHRGFDVGHFDFWGQGTLVTVSSASTKGPSVFPLAPSSKSTSGGTAALGCLVKDYFPEPVTVSWNSGALTSGVHTFPAVLQSSGLYSLSSVVTVPSSSLGTQTYICNVNHKPSNTKVDKKVEPKSCDKTHTCPPCPAPELLGGPSVFLFPPKPKDTLMISRTPEVTCVVVDVSHEDPEVKFNWYVDGVEVHNAKTKPREEQYNSTYRVVSVLTVLHQDWLNGKEYKCKVSNKALPAPIEKTISKAKGQPREPQVYVYPPSRDELTKNQVSLTCLVKGFYPSDIAVEWESNGQPENNYKTTPPVLDSDGSFALVSKLTVDKSRWQQGNVFSCSVMHEALHNHYTQKSLSLSPG
heavy 2: not shown
light: GDIQMTQSPSSLSASVGDRVTITCRSSETLVHSSGNTYLEWYQQKPGKAPKLLIYRVSNRFSGVPSRFSGSGSGTDFTLTISSLQPEDFATYYCFQGSFNPLTFGQGTKVEIKRTVAAPSVFIFPPSDEQLKSGTASVVCLLNNFYPREAKVQWKVDNALQSGNSQESVTEQDSKDSTYSLSSTLTLSKADYEKHKVYACEVTHQGLSSPVTKSFNRGEC
[1]
  Background-Subtracted AF647 Mean Fluorescence Intensity: -91 MFI
[2]
  Background-Subtracted AF647 Mean Fluorescence Intensity: 56 MFI
[3]
  Background-Subtracted AF647 Mean Fluorescence Intensity: 25 MFI
[4]
  Background-Subtracted AF647 Mean Fluorescence Intensity: -3 MFI
[5]
  Background-Subtracted AF647 Mean Fluorescence Intensity: 1370 MFI
[6]
  Background-Subtracted AF647 Mean Fluorescence Intensity: 35 MFI
[7]
  Background-Subtracted AF647 Mean Fluorescence Intensity: 1700 MFI
[8]
  Background-Subtracted AF647 Mean Fluorescence Intensity: 1050 MFI
[10]
  Background-Subtracted AF647 Mean Fluorescence Intensity: 52 MFI
[9]
  Background-Subtracted AF647 Mean Fluorescence Intensity: 1200 MFI

B4: palivizumab (v21995), anti-RSV antibody, negative control (antibody, human IgG1, kappa, V domains shown)
VH: QVTLRESGPALVKPTQTLTLTCTFSGFSLSTSGMSVGWIRQPPGKALEWLADIWWDDKKDYNPSLKSRLTISKDTSKNQVVLKVTNMDPADTATYYCARSMITNWYFDVWGAGTTVTVSS
VL: DIQMTQSPSTLSASVGDRVTITCKSQLSVGYMHWYQQKPGKAPKLLIYDTSKLASGVPSRFSGSGSGTEFTLTISSLQPDDFATYYCFQGSGYPFTFGGGTKLEIKR
[1]
  Background-Subtracted AF647 Mean Fluorescence Intensity: 11 MFI
[2]
  Background-Subtracted AF647 Mean Fluorescence Intensity: -34 MFI
[3]
  Background-Subtracted AF647 Mean Fluorescence Intensity: -2 MFI
[4]
  Background-Subtracted AF647 Mean Fluorescence Intensity: 1 MFI
[5]
  Background-Subtracted AF647 Mean Fluorescence Intensity: 13 MFI
[6]
  Background-Subtracted AF647 Mean Fluorescence Intensity: -85 MFI
[7]
  Background-Subtracted AF647 Mean Fluorescence Intensity: -27 MFI
[8]
  Background-Subtracted AF647 Mean Fluorescence Intensity: 22 MFI
[10]
  Background-Subtracted AF647 Mean Fluorescence Intensity: 123 MFI
[9]
  Background-Subtracted AF647 Mean Fluorescence Intensity: -64 MFI
